test: soluble on expression in E. coli; label from the status in PepcDB or PDB records

| Sequence | soluble on expression in E. coli |
| --- | --- |
| SLQDFWCSTLVKGVIYGSYSVSEMFPKNFTNCTWTLENPDPTKYSIYLKFSKKDLSCSNFSLLAYQFDHFSHEKIKDLLRKNHSIMQLCNSKNAFVFLQYDKNFIQIRRVFPTNFPGLQKKGEEDQKSFFEFLVLNKVSPSQFGCHVLCTWLESCLKSENGRTESCGIMYTKCTCPQHLGEWGIDDQSLILLNNVVLPLNEQTEGCLTQELQTTQVCNLTREAKRPPKEEFGMMGDHTIKSQRPRSVHEKRVPQEQADAAKFMAQTG | soluble |
| MSLVDTAKVLILDDQAVSRSILSKIVRNLGRGIKTCEFSSPTEALLWAQDNTADLLLVDYEMPGMNGLCFINEITRLPQYQTVPTIMITIKQDVEIRYAALDAGVTDFLTKPVDMHECMARCKNLITLRQQRLTLEDEGHHHHHH | soluble |
| MLTVHHLNQSRSQRILWALEELALPYQIVRYQREKTMLAPPALKKVHPLGKSPVIEDHGMVIAESGAILEYLQDTYDSIGRFKPADAQGKQHYRFWLHYAEGSLMPLLLMRLLFTSLGKPPVPLGLRTLGGVIGKGAQKAYLNPQLETHARFIDGHLANHPWFAGEQLSMADIQMSFPLFALLARGGIAHLDHINAWKARVEMRPAWQRAIQQGGPFTIPGG | not soluble |
| MAGLGELERAVMDHLWSTSEPQTVRQVHEALAARRELAYTTVMTVLQRLAKKHLVIQQRDDRAHRYLPVHQREELVASLMVDALQQADKSGSRAAALVHFVGQVGADEADALREALAALEAKERSTGDNQSGTVRAG | not soluble |
| MSLMASAVAEENAERSKEGFIEGSEVNLLLRNFYFNRDFRKGQSSPAGGGYTEEWVQGFMANFSSGFTQGTLGVGIDAFAQLGVRLDSGGGRSGAGGSVDLLPYDDQGRPQDDYSRAGGAVKLRWYGTVLRVGDVFPETPVIQYGNSRLFPSSFRGFTLVNDSLAKGLTLQAGKLNSMTQPNSTSGSDDFYSFYTGRRIDSPWVAYAGGDYQATEHWSVSLYGSRQKDAWDQYYAGTSFNYPLDDKLSLLGGANYYKVKDQGRQVMGELDNDIWSVRGGFAYGPHQVLLSYQRNNGDDDFDYLRQTDSIYLDNSIQYSDFNSPKERSLMLRYDLDMAAFGVPGLSFMTRYGKGWDADYSNANSVYMRTDANGNPLTNQGRWERDVEVKYVVQGGAAKDLAFRVRQATVRSDSFESDLDEVRLIVEYPLQVLEGHHHHHH | not soluble |
| MEIERRLVLEVVRVTEQAALAASRFAGKGDKEAVDEAGTQAMRRVLNELPIRGTVVIGEGEMDEAPMLYIGEVLGQGGLEVDIAVDPVEGTTTVAKGLPNAVTVIALSEKGGLFHAPDMYMEKLIVPPSAVGLVDLTWPVSVNLRALALALQRSVEDLVVVVLEPPRHERLIREIRKAGAPVKLISDGDVIAALAAAIRGTGVHAVMGIGGAPEGVLTAAALKCLGGEIQARFVPQNEEERERLKAMGGDEHRIYKTEDLAPGKEIVFAATGITDGDILEGVRFFGGGARTHSIVMGHATRVVRFIDSIHLFETGARVTIRV | soluble |
| MGHHHHHHSHMPPGGHIESGASFSPSAGSDGDKGLKPREEGEAPEAGPCLASQLAPVQWVAPPRLLLRLIFIDLPALLIAPTAESSAEEDEEPHDEGQSSEDQAPIANGLIVIVERVHVPLGAAATVHRQPSHFPR | not soluble |
| MKLLTLNCHSWQEENQIEKIQYLAKVIQEEEYDVIALQEVSQSIQAENVCGNKKKDNFGLLLLEELKALHVKDYNITWDFSHIGYDVYEEGLAIITKHNIIKEDTFFISENEDTTYWKTRKIVSTTIAYNGKDITFYSCHLGWWNDEEESFKGQVDRLMERVDSNKLAFLMGDFNNNARLKGEGYEYMMQKGLYDTYELAIEKDEGTTVQGEIAGWDENKHNLRIDLILCNQSKKVHSSKVIFNGTNRNVISDHFGVEVQLDI | not soluble |
| VSRDENSWLIDGATPLEEVTRVLDIAYFPDEENYETISGFMMYMLRKIPKKTDSVVYGKYKFEVIDTENFKIDQILVSLVKEQE | not soluble |
| MSQISIILPTYNVEKYIARALESCINQTFKDIEIIVVDDCGNDKSIDIAKEYASKDDRIKIIHNEENLKLLRARYEGAKVATSPYIMFLDSDDYLELNACEECIKILDMGGGGKIDLLCFEAFITNAKKSIKKLNIKQGKYNNKEFTMQILKTKNPFWTMWAKIIKKDIYLKAFNMLNLKKEIKINMAEDALLYYPLTILSNEIFYLTQPLYTQHVNSNSITNNINSLEANIQEHKIVLNVLKSIKNKKTPLYFLIIYLLKIQLLKYEQNFNKRNINLIYYKINILYQKYQFKWKKFLYNLIP | not soluble |
| MPKPSVGINGFGRIGRLVLRAAVEKDSVNVVAVNDPFISIDYMVYLFQYDSTHGRFKGTVAHEGDYLLVAKEGKSQHKIKVYNSRDPAEIQWGASGADYVVESTGVFTTIEKANAHLKGGAKKVIISAPSADAPMFVVGVNHEKYDHANDHIISNASCTTNCLAPLAKVINDNFGIIEGLMTTVHAVTATQKTVDGPSGKLWRDGRGAGQNIIPASTGAAKAVGKVIPELNGKLTGMAFRVPTPDVSVVDLTARLEKPASLDDIKKVIKAAADGPMKGILAYTEDQVVSTDFVSDTNSSIFDAGASISLNPHFVKLVSWYDNEFGYSNRVVDLISYIATKA | not soluble |
| GSHMQQWVDCEFTGRDFRDEDLSRLHTERAMFSECDFSGVNLAESQHRGSAFRNCTFERTTLWHSTFAQCSMLGSVFVACRLRPLTLDDVDFTLAVLGGNDLRGLNLTGCRLRETSLVDTDLRKCVLRGADLSGARTTGARLDDADLRGATVDPVLWRTASLVGARVDVDQAVAFAAAHGLCLAGG | soluble |
| MAGRVPRLTGHCSILSRTYGHSLMDLAALRFYIAPGKKPVIAAGMPWYMALFGRDSLITSYQCCFIAPDIAFNTLRNLANLQGKEYNYFKDEEPGKILHELRFGEKTLLGKKPYSPYFGSADTCQLFLILLHEVFKWTGNKEFVNEFKEPALKALYWIDNFGDMDGDGYVEYKKRSKEGLDNHCWKDSGTSMIFSDSRLAEAPIATVEFQGYIYDAKIRLAELAEEVWDDPSFAEELRNQAKELKRRFNRDFWIEDRGGYFALGLDKNKEKIDSMTSNMGHLLWSGIVEDDRAGIIVKQLMSRDLYNGWGIRTLSSHDRGYNPIEYHNGTVWPHDNSLIAEGFIKYGYRDEANRIITNLLEASQYFDSRFPEVFAGYQRTEVDFPVSYPTSSIPQAWAAGASMLFLRLILGLEPDRKSQSIKIDPYLPQVIEDICVENIRLFNKKFSVFAGKGRSEIKLSEMAGDPLEHHHHHH | not soluble |
| MGSDKIHHHHHHMNQSETDMIERIFTATDALMATVGLPNLSMHKIAREAKISPGTIYIYFKNKEELLTQFARYIFQNFQDVLKEGYDERQPFFQQYRKMWWNIWHFLEAEPTIMANMGQYESLPGFSDICQKWESDSIWYHFCVKAKAAGELADVPPPILFAISLESAFNIAFKCRHFCAQVSMEMLEAVIERTWLAIKN | not soluble |
| MLEQIQQALAGDQEQFQALYGQYQPVIYKCMKKYYLKDYDTEDWLQEGRIVFFRTLERFDSEKQASLGKFFKRNFENHVHSLIRHQCAYKRRTDTLSISLEQRLESAGEELVDYLGTAATDPLGQLMIQEKLAAFPTRLSSLEQQILNAYLKGYTLEEIAKVRGGTFSAVRSAYDRAKAKMKYTLENE | not soluble |
| MEENSKLGLIDVFTGDGKGKTTAAFGLAFRALGWGYRVYILQFMKTGVYGENKSAIMFDRNLKVDFVGMPYFIAWENEIPKEDLDKVKNVVICKKGHPPDDYRRAVKERFDRSLEELKSGKWDMFIYDEINVALYYYLLSMEEVMEIFKAKPDHTELVFTGRKMPKEIMERADLITEVSSPRHPYQRGILARRGVDF | not soluble |
| MPEPTKKEEPSKEKEAGTTPAKDWTLVETPPGEEQAKQNANSQLSILFIEKPQGGTVKVGEDITFIAKVKAEDLLRKPTIKWFKGKWMDLASKAGKHLQLKETFERHSRVYTFEMQIIKAKDNFAGNYRCEVTYKDKFDSCSFDLEVHESTGTTPNIDIRSAFKRSGEGQEDAGELDFSGLLKRREVKQQEEEPQVDVWELLKNAKPSEYEKIAFQYGITDLRGMLKRLKRMRREEKKSAAFAKILDPAYQVDKGGRVRFVVELADPKLEVKWYKNGQEIRPSTKYIFEHKGCQRILFINNCQMTDDSEYYVTAGDEKCSTELFVREPPIMVTKQLEDTTAYCGERVELECEVSEDDANVKWFKNGEEIIPGPKSRYRIRVEGKKHILIIEGATKADAAEYSVMTTGGQSSAKLSVDLKPLKILTPLTDQTVNLGKEICLKCEISENIPGKWTKNGLPVQESDRLKVVQKGRIHKLVIANALTEDEGDYVFAPDAYNVTLPAKVHVIDPPKIILDGLDADNTVTVIAGNKLRLEIPISGEPPPKAMWSRGDKAIMEGSGRIRTESYPDSSTLVIDIAERDDSGVYHINLKNEAGEAHASIKVKVVDFPDPPVAPTVTEVGDDWCIMNWEPPAYDGGSPILGYFIERKKKQSSRWMRLNFDLCKETTFEPKKMIEGVAYEVRIFAVNAIGISKPSMPSRPFVPLAVTSPPTLLTVDSVTDTTVTMRWRPPDHIGAAGLDGYVLEYCFEGTEDWIVANKDLIDKTKFTITGLPTDAKIFVRVKAVNAAGASEPKYYSQPILVKEIIEPPKIRIPRHLKQTYIRRVGEAVNLVIPFQGKPRPELTWKKDGAEIDKNQINIRNSETDTIIFIRKAERSHSGKYDLQVKVDKFVETASIDIQIIDRPGPPQIVKIEDVWGENVALTWTPPKDDGNAAITGYTIQKADKKSMEWFTVIEHYHRTSATITELVIGNEYYFRVFSENMCGLSEDATMTKESAVIARDGKIYKNPVYEDFDFSEAPMFTQPLVNTYAIAGYNATLNCSVRGNPKPKITWMKNKVAIVDDPRYRMFSNQGVCTLEIRKPSPYDGGTYCCKAVNDLGTVEIECKLEVKV | soluble |
| NLSELTPYILCSICKGYLIDATTITECLHTFCKSCIVRHFYYSNRCPKCNIVVHQTQPL | soluble |
| DLRRQLRKAVMDHVSDSFLETNVPLLVLIEAAKNGNEKEVKEYAQVFREHANKLIEVANLACSISNNEEGVKLVRMSASQLEALCPQVINAALALAAKPQSKLAQENMDLFKEQWEKQVRVLTDAVDDITSIDDFLAVSENHILEDVNKCVIALQEKDVDGLDRTAGAIRGRAARVIHVVTSEMDNYEPGVYTEKVLEATKLLSNTVMPRFTEQVEAAVEALSSDPAQPMDENEFIDASRLVYDGIRDIRKAVLMI | soluble |
| MGSDKIHHHHHHMKVRIRDFIETTEGLYFAVNTYAHPKNKFFAFLRYVPYEFVDFKIEDNNIREINGRKYIKMAESKIAYKFLEEKFSKYLYYDETINVLMHAIPKEDVKRILRPKERLNEIINEENNLNELEEKCRKLALILEDYGVPIKSMGVSGSLLLKLNNKNSDIDFVIYGKDMHKKAREALKQAFEDNKLKPLSDDFWKIAYKKRIKDKTLTYEEFVFYEKRKYNRGIVDNTMFDLLFTREWDEITEKYGDKRYKNLGFAKIEGRVLNDDFAFDNPAVYKIECYNDEDIKEVVSFTHTYAGQCFNGEEIVARGKLEEVIDKSGERYKRIVVGTTREAFNEYIKIKR | not soluble |
| MGSDKIHHHHHHMDDRARALLKALIERYIADGQPVGSRTLSKVFDLSPATIRNVMADLEELGLIHSPHTSAGRVPTPRGYRMFVDSLLAVRAYQFEPAHIGELLPVSEPSRAVNAAAALLSNLTQFAGVVLTPKRTQIFRQIEFIRLSDKRVLLIIVTPEGDVQNRILSAQRDYTEAELLEAGNFFNVHFSGKSFDAVRRTLSTELAQLRDDISRLMQAAVEAGAEAADDGEAVVISGERKLLDVTDIASDMDRLRKMFSLFEKKTDLLQLLDVSSRAQGVQIYIGGDSQLVPMEEVSVITAPYGVDGKVIGTLGVIGPTRMAYERVIPIVDITARLLSNALSHNQ | not soluble |
| MVARNDNLKPFSERSVDEARELGRKGGKASGEVRRKKADLKRAISIVLSSEVPSSKMAKTLKEMGYENTNEMAMVLSMTQKAIKGDVKAASWISNIIQPAKVEHEVEMSVGVDEKRKVAEEYIRGLFNNDTGNSTEENN | not soluble |
